We go through five molecules from paper PMC11880201.

Series [1] concerns the target T1, INSM1 ZF1;TEAD1-TEAD (human;human?, UniProt Q01101;P28347 257-292;28-104, |). Nature of the series: AUC.
In a further series the target is T2, CTCF ZF3-ZF7 (human, UniProt P49711 317-467).
T2 sequence: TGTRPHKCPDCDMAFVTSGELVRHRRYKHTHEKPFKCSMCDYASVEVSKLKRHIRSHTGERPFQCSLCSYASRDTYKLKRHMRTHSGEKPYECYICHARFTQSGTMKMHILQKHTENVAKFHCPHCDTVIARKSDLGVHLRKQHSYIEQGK
The experiment in a line: EMSA.

Series [2] deals with T3, INSM1 ZF1-ZF5 (human, UniProt Q01101 257-497). Nature of the series: EMSA. A general note: A gel shift assay detects complexes by their altered migration in electrophoresis.
The target in the next series is TEAD1-TEAD (UniProt P28347 28-104). The experiment in a line: EMSA.
The next series deals with TEAD1-TEAD L79A (UniProt P28347 28-104, L79A). The experiment in a line: EMSA.
Another series deals with TEAD1-TEAD R75A (UniProt P28347 28-104, R75A). The experiment in a line: EMSA.
Series [3] deals with T3, INSM1 ZF1-ZF5. Nature of the series: EMSA. This is another data set of the same source.
In the next series the target is TEAD1-TEAD R80A (UniProt P28347 28-104, R80A). The experiment in a line: EMSA.
Series [4] has as its target T1, INSM1 ZF1;TEAD1-TEAD. The experiment in a line: EMSA.
Series [5] has as its target T3, INSM1 ZF1-ZF5. The experiment in a line: NMR titration.
The target in the next series is INSM1 ZF3 (human, UniProt Q01101 346-396). Nature of the series: NMR titration.

Like-named read-outs stand apart in the source and are kept apart here.

T3 sequence (Q01101 257-497): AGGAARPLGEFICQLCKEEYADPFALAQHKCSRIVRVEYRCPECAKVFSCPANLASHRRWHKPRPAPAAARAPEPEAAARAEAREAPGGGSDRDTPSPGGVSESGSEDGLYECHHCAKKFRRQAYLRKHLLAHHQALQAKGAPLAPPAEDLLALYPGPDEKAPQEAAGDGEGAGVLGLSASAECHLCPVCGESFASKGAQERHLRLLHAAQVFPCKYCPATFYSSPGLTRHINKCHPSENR
T1 sequence (Q01101 257-292, chain 1 of 2): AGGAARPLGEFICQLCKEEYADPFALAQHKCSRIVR
T1 sequence (P28347 28-104, chain 2 of 2): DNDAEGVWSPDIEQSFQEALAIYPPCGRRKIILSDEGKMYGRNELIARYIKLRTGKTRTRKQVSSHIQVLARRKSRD
TEAD1-TEAD L79A, sequence (P28347 28-104 L79A): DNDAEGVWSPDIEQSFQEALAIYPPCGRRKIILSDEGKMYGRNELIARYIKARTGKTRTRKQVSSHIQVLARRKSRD
INSM1 ZF3, sequence (Q01101 346-396): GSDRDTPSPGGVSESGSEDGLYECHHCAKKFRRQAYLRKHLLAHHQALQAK
TEAD1-TEAD R75A, sequence (P28347 28-104 R75A): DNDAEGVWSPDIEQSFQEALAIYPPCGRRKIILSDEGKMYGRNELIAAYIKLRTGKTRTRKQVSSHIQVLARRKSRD
TEAD1-TEAD R80A, sequence (P28347 28-104 R80A): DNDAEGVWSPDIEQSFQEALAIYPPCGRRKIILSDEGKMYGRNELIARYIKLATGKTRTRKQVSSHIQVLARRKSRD
TEAD1-TEAD, sequence (P28347 28-104): as the sequence (P28347 28-104, chain 2 of 2) above

B1: MCAT (unlabeled) (dsDNA)
DNA 1: AGTGGAATGTGC
DNA 2: GCACATTCCACT
For the molecule B1, the binding result in the series with INSM1 ZF1;TEAD1-TEAD [1] is “binds”.

B2: M2 (FAM) (dsDNA)
DNA 1: TACCACCAGGGGGCAGT
DNA 2: ACTGCCCCCTGGTGGTA
As for B2, in the series with CTCF ZF3-ZF7, the Kd (in general, the equilibrium constant for the complex coming apart) came out at 0.0984 µM.

B3: M1 (dsDNA)
DNA 1: TGTCAGGGGGCA
DNA 2: TGCCCCCTGACA
Turning to B3, the Kd with INSM1 ZF1-ZF5 [2] came to 6 µM. That is a single-digit micromolar value.

B4: MCAT (FAM) (dsDNA)
DNA 1: AGTGGAATGTGC
DNA 2: GCACATTCCACT
Turning to B4, the Kd with TEAD1-TEAD was around 0.09 µM; with INSM1 ZF1-ZF5 [3] it was 8.24 µM. For the same molecule, the binding result in the series with TEAD1-TEAD L79A, with TEAD1-TEAD R75A, with TEAD1-TEAD R80A and with INSM1 ZF1;TEAD1-TEAD [4] was “binds” each time.

B5: M2 (unlabeled) (dsDNA)
DNA 1: TACCACCAGGGGGCAGT
DNA 2: ACTGCCCCCTGGTGGTA
Take B5: the binding result with INSM1 ZF1-ZF5 [5] and in the series with INSM1 ZF3 was “binds” in each case.
